In the supplement of paper PMC7877785:
± gives the uncertainty stated by the source.

Test: self-splicing fitness, log relative to wild type (ln ratio); higher = more splicing; Tetrahymena group I intron in knt gene, E. coli kanamycin selection, DiMSum; sequences stand for … in CUCUCU…GGAGGGAAAAGUUAUCAGGCAUGCACCUGGUAGCUAGUCUUUAAACCAAUAGAUUGCAUCGGUUUAAAAGGCAAGACCGUCAAAUUGCGGGAAAGGGGUCAACAGCCGUUCAGUACCAAGUCUCAGGGGAAACUUUGAGAUGGCCUUGCAAAGGGUAUGGUAAUAAGCUGACGGACAUGGUCCUAACCACGCAGCCAAGUCCUAAGUCAACAGAUCUUCUGUUGAUAUGGAUGCAGUUCACAGACUAAAUGUCGGUCGGGGAAGAUGUAUUCUUCUCAUAAGAUAUAGUCGGACCUCUCCUUAAUGGGAGCUAGCGGAUGAAGUGAUGCAACACUGGAGCCGCUGGGAACUAAUUUGUAUGCGAAAGUAUAUUGAUUAGUUUUGGAGUACUCGUGGUCG
Outline: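 Fitness was computed with DiMSum as the error-weighted combination of replicate fold changes, kanamycin versus none, each normalised to wild type. The library randomised all eight intron nucleotides of the P1ex region, with the intron placed in the knt kanamycin-resistance gene on pET-22b(+) in E. coli BL21(DE3). Six replicate transformations were grown overnight at 37°C or 30°C on LB agar with or without 25 μg/mL kanamycin, plus 100 μg/mL carbenicillin, 50 μM IPTG and 0.2% rhamnose. Pooled colonies were amplicon-sequenced on an Illumina HiSeq 2500.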

Row | Sequence | self-splicing fitness (ln) (30 °C) | self-splicing fitness (ln) (37 °C)
1 | CCUAAGCAAUAUUACGUAUU | -4.79 ± 0.39 | -3.07 ± 0.2
2 | GGGAAGCAAUAUUACGACGA | -0.787 ± 0.093 | 0.0557 ± 0.11
3 | CUGCAGCAAUAUUACGGUUU | -3.11 ± 0.13 | -1.43 ± 0.12
4 | GUAUAGCAAUAUUACGUCUG | -3.17 ± 0.17 | -1.08 ± 0.14
5 | AGAGAGCAAUAUUACGGAUC | -3.76 ± 0.42 | 
6 | CAGAAGCAAUAUUACGGAGU | -3.56 ± 0.28 | -3.14 ± 0.4
7 | UGCCAGCAAUAUUACGACUU | -2.97 ± 0.14 | -1.46 ± 0.13
8 | ACGUAGCAAUAUUACGUCCG | -1.63 ± 0.12 | -0.705 ± 0.11
9 | ACUUAGCAAUAUUACGCUUU | -1.69 ± 0.088 | -1.42 ± 0.14
10 | AACCAGCAAUAUUACGUCUA | -0.091 ± 0.062 | -0.6 ± 0.067
11 | CUUAAGCAAUAUUACGGGGC | -3.68 ± 0.2 | -2.63 ± 0.21
12 | UCCGAGCAAUAUUACGCCCA | -4.21 ± 0.36 | -2.83 ± 0.35
13 | CCCCAGCAAUAUUACGUAUA | -4.57 ± 0.34 | -3.21 ± 0.28
14 | ACGAAGCAAUAUUACGACCA | -0.752 ± 0.15 | -0.848 ± 0.13
15 | GCACAGCAAUAUUACGGCUU | -0.432 ± 0.054 | -0.0629 ± 0.064
16 | UUGGAGCAAUAUUACGCGCA | -2.48 ± 0.29 | -1.09 ± 0.29
17 | CAUAAGCAAUAUUACGUUUU | -4.55 ± 0.22 | -2.54 ± 0.15
18 | CGGGAGCAAUAUUACGCGUU | -1.22 ± 0.23 | 
19 | AUGCAGCAAUAUUACGUCUA | -0.692 ± 0.12 | 0.148 ± 0.1
20 | CGAAAGCAAUAUUACGUGUU | -4.1 ± 0.18 | -2.54 ± 0.17

Row | Sequence | self-splicing fitness (ln) (30 °C) | self-splicing fitness (ln) (37 °C)
21 | CAGCAGCAAUAUUACGGAUU | -3 ± 0.14 | -1.64 ± 0.13
22 | ACGUAGCAAUAUUACGUCGC | -3.64 ± 0.35 | -1.91 ± 0.27
23 | CUGUAGCAAUAUUACGUAAC | -3.09 ± 0.46 | -2.24 ± 0.5
24 | GGCUAGCAAUAUUACGCCUU |  | -0.73 ± 0.19
25 | UGACAGCAAUAUUACGCCGC | -1.26 ± 0.32 | 
26 | CGGAAGCAAUAUUACGUGAA | -3.4 ± 0.17 | -1.66 ± 0.15
27 | UAUGAGCAAUAUUACGGUAG | -1.79 ± 0.37 | -1.88 ± 0.36
28 | CGUUAGCAAUAUUACGUUAG | -0.796 ± 0.081 | -0.539 ± 0.1
29 | UAUAAGCAAUAUUACGCAGU | -3.27 ± 0.2 | -1.68 ± 0.15
30 | UUUAAGCAAUAUUACGUUAA | -1.68 ± 0.23 | -1.38 ± 0.18
31 | CCAAAGCAAUAUUACGUGGU | -3.39 ± 0.098 | -3.29 ± 0.14
32 | GGUAAGCAAUAUUACGUGAC | -1.4 ± 0.076 | -1.66 ± 0.12
33 | GUACAGCAAUAUUACGGCUG | -3.82 ± 0.21 | -1.38 ± 0.14
34 | AAAUAGCAAUAUUACGAUGC | -2.26 ± 0.31 | -1.65 ± 0.34
35 | GUGUAGCAAUAUUACGAUGA | -1.16 ± 0.087 | -0.756 ± 0.094
36 | GAGCAGCAAUAUUACGUUCA | -1.38 ± 0.13 | -0.931 ± 0.13
37 | GAGGAGCAAUAUUACGGCGA | -1.1 ± 0.23 | -0.687 ± 0.2
38 | AUGCAGCAAUAUUACGACAU | -0.23 ± 0.012 | 0.215 ± 0.032
39 | AUUCAGCAAUAUUACGCCUA | -0.46 ± 0.12 | -0.501 ± 0.13
